Measurements reported in the supplement of paper PMC6379048.
pKd: −log10 of the molar value.

Key:
Test in all cases: Kd (EC50 corrected by depletion factor)
ZRANB2 = molecular target: T1, ZRANB2 (UniProt O95218)
T1 sequence: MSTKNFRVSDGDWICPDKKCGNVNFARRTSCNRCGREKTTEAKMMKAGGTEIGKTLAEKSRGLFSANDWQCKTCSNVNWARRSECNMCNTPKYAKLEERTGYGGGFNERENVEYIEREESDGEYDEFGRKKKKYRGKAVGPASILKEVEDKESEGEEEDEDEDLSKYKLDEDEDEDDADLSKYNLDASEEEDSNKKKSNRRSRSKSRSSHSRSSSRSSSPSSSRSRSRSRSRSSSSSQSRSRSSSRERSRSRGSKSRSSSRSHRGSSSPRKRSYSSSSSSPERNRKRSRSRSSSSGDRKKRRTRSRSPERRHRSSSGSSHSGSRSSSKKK
How it was run: (§1)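 To obtain EC50, data were fitted with a four-parameter log-logistic model; Kd was then EC50 multiplied by a protein-dependent depletion factor. Beforehand, free RNA oligos (0 nM to 30 μM) were pre-incubated with HEK293-FT lysate (2.5 mg protein/well) for 1 h at 4°C. The lysate then spent 30 min at 4°C with the same 5′-amino-C6 oligos coupled to NHS-Sepharose beads, and bound proteins were quantified by label-free LC-MS/MS, normalised to the control.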

P4HB = P4HB (UniProt P07237)
Sequence of P4HB (P07237 whole entry, looked up): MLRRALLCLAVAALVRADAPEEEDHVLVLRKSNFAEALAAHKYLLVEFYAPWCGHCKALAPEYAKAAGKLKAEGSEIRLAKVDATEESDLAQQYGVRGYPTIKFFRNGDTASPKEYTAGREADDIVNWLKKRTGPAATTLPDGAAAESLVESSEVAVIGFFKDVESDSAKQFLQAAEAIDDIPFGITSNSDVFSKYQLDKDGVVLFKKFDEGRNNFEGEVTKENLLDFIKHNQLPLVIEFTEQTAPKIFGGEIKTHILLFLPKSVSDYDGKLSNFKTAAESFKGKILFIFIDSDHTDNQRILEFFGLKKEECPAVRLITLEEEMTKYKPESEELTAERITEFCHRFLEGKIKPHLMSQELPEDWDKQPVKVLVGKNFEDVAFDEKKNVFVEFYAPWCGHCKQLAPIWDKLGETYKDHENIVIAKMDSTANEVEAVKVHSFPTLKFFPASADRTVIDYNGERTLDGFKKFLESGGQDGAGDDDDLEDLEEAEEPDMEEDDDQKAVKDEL
How it was run: as §1

SF3B6 = SF3B6 (UniProt Q9Y3B4)
Sequence of SF3B6 (Q9Y3B4 whole entry): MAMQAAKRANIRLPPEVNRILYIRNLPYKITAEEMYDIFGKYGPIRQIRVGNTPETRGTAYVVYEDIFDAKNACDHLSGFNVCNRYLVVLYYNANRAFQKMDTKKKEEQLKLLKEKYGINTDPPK
How it was run: as §1

PARP12 = molecular target: T2, PARP12 (UniProt Q9H0J9)
T2 sequence: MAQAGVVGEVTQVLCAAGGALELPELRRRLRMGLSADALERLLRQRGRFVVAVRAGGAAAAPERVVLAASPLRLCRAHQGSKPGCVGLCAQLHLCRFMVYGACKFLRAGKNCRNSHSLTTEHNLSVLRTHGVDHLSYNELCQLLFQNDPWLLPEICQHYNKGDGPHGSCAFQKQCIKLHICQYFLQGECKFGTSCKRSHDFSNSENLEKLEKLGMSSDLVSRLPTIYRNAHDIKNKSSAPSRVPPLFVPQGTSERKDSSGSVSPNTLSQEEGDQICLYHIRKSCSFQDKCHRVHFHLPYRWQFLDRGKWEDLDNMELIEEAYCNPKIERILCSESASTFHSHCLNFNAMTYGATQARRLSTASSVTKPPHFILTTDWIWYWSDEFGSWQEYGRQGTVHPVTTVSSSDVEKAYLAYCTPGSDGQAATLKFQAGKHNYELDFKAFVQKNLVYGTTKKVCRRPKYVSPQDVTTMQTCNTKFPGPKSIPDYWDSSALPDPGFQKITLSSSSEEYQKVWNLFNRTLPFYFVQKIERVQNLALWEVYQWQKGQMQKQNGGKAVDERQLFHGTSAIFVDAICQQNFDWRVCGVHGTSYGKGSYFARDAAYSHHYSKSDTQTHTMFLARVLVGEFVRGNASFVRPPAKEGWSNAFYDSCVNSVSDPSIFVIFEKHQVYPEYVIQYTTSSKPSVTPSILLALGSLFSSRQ
How it was run: as §1

TUBB2A = TUBB2A (UniProt Q13885)
Sequence of TUBB2A (Q13885 whole entry): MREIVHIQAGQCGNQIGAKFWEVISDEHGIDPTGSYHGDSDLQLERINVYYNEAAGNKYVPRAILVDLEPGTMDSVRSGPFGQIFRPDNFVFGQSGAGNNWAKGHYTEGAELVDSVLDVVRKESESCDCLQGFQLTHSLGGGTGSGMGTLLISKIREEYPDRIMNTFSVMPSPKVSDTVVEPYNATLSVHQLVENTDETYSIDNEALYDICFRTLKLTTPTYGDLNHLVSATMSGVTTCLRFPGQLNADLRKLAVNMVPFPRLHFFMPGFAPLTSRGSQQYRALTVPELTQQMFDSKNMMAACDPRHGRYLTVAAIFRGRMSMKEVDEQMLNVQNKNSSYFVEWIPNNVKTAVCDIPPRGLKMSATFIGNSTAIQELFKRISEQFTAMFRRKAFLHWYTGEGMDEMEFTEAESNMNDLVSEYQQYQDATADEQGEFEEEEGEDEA
How it was run: as §1

U2AF2 = U2AF2 (UniProt P26368)
Sequence of U2AF2 (P26368 whole entry): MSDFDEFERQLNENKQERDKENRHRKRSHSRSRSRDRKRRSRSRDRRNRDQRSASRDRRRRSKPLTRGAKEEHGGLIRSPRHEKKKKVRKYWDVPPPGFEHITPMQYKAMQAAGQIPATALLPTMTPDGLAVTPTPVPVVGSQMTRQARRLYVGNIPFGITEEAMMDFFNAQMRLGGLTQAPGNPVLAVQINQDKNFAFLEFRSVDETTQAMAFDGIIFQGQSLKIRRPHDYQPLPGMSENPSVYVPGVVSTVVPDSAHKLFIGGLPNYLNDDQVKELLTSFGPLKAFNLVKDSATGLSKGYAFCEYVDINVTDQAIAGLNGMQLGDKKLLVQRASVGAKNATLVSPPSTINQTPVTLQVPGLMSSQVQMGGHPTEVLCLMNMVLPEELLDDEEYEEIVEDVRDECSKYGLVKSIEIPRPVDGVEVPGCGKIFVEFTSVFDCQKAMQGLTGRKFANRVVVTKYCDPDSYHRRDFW
How it was run: as §1

SF3B2 = molecular target: T3, SF3B2 (UniProt Q13435)
T3 sequence: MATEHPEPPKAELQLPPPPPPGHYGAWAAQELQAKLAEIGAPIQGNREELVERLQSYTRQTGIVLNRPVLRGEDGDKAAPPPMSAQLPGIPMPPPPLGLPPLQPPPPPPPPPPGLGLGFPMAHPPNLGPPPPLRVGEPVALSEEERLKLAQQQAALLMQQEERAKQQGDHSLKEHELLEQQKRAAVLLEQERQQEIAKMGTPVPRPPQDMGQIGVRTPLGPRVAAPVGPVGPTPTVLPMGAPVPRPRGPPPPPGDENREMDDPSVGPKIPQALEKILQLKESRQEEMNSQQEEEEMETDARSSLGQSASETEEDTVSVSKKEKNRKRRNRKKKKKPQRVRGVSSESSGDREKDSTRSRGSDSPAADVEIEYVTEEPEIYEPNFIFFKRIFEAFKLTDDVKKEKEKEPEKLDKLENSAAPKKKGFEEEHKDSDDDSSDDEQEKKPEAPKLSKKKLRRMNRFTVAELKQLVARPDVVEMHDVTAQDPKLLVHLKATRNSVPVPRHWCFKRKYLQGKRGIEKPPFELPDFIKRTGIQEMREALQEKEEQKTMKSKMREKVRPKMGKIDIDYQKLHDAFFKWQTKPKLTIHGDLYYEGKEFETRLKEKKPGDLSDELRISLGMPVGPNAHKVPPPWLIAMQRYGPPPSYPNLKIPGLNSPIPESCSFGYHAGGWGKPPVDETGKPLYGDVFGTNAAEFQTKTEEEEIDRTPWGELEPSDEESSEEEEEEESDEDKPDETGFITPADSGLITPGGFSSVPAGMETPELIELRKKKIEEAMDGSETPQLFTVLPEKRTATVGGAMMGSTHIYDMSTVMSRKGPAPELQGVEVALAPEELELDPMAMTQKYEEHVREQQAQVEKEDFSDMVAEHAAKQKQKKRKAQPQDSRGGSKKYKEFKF
How it was run: as §1

RPS12 = RPS12 (UniProt P25398)
How it was run: as §1

MRPL21 = MRPL21 (UniProt Q7Z2W9)
How it was run: as §1

MRPL49 = MRPL49 (UniProt Q13405)
How it was run: as §1

Sequence | pKd (ZRANB2) | pKd (P4HB) | pKd (SF3B6) | pKd (PARP12) | pKd (TUBB2A) | pKd (U2AF2) | pKd (SF3B2) | pKd (RPS12) | pKd (MRPL21) | pKd (MRPL49)
AAUAAA | 6.66 | 7.61 | 5.64 | 5.27 | 5.99 | 6.98 | 6.14 | – | – | –
CUGUCCU | – | – | – | – | – | – | – | 6.89 | 7.24 | 7.43
